Data from patent publication US9913914B2, “Cell transport” (priority 2013, dated 2018).

Legend:
Format in all cases: cell-based, Dictyostelium discoideum
[1] = system: Dictyostelium cells (PTEN-null phenotype); assay: Streaming/aggregation of starved wild-type Dictyostelium cultures compared with PTEN-null mutant; conditions: 10 micromolar dose
Protocol: FIG. 8. Cupid can transport large molecule cargo into the cell. Starved Dictyostelium cultures were plated into petri dishes in starvation buffer and visualised after 10 hours. In untreated wild-type (WT) cultures (A), cells stream together into aggregation centres, co-ordinated by cell to cell signaling.
In Dictyostelium, a genetic mutant in which the PTEN gene is absent causes marked changes in phenotype.

PTEN [2] = assay: Inositol phospholipid levels in starving Dictyostelium cells (solvent extraction, thin layer chromatography); conditions: 10 micromolar, 1 hour
Protocol: FIG. 9. The levels of the 4 inositol phospholipids (PI, PIP, PIP2 and PIP3) in wild-type Dictyostelium cells undergoing starvation were measured by solvent extraction of cell cultures and analysis using thin layer chromatography. The effect of Cupid B-PTEN peptide treatment (10 micromolar, 1 hour) was calculated as a percentage change in the basal (untreated) levels.
The PTEN protein has a phospholipase enzymatic activity that functions to remove phosphate groups from inositol-based lipids and as such is involved with maintaining the balance between varieties of inositol phospholipids present at the cell surface. In wild-type cells undergoing starvation the inositol phospholipids with 3 and 4 phosphate groups (PIP2 and PIP3) are kept low, largely due to the action of PTEN.
We determined the effect of Cupid B-PTEN peptide on the inositol phospholipid levels in Dictyostelium cultures. Cupid B-PTEN peptide treated cells (10 micromolar, 1 hour) alters the basal levels of inositol phospholipids in Dictyostelium cells.

PTEN [3] = assay: Protein phosphorylation response to cyclic AMP in starving Dictyostelium cultures (antibody detection on SDS gels); conditions: pretreated 1 hour, 10 micromolar
Text: FIG. 10. In starving Dictyostelium cultures, several proteins undergo rapid phosphorylation/dephosphorylation events in response to an applied dose of cyclic AMP. The strength of this response is limited by PTEN enzyme activity. This response is visualised with antibody detection of these phosphoproteins on SDS gels prepared from extracted cultures at the time points indicated after the cAMP dose.
In starving Dictyostelium cultures, several proteins undergo rapid phosphorylation/dephosphorylation events in response to an applied dose of cyclic AMP. The strength of this initial phosphorylation response is limited by PTEN enzyme activity and is associated with changes in PIP2 and PIP3 inositol phospholipid levels.

B1: Cupid B-PTEN peptide: SEQ ID NO: 12; His-tagged Cupid B fused to 167 amino acid C2 region (186-352) of human PTEN (protein, listed as Homo sapiens)
chain: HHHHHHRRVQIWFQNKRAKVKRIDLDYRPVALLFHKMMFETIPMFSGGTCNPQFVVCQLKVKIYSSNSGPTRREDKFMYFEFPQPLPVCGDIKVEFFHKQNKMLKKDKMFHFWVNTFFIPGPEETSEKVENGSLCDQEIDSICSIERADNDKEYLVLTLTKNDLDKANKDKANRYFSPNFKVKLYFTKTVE
modifications: His tag
notes: His-tagged Cupid B fused to 167 amino acid C2 region (186-352) of human PTEN
aggregation behaviour of wild-type cells during starvation [1]: exhibit the same distinctive behaviour as the PTEN-Null strain
level of PIP2 relative to untreated basal levels (PTEN [2]): +75%
level of PIP3 relative to untreated basal levels (PTEN [2]): +150%
initial phosphorylation response to cyclic AMP versus untreated cultures (PTEN [3]): much stronger initial phosphorylation response
